± gives the standard error. For some assays here: This sample holds only a part of the variants without activity.
B1: glmS ribozyme (parent)
chain: AUAAAAGCGCCAGAACUACAGAAAUGUAGUUGACGAGGAGGAGGUUUAUCGAAUUUUCGGCGGAUGCCUCCAAA

Tests used:
Conditions in all cases: with glucosamine-6-phosphate
glucosamine-6-phosphate [1] = variants of: B1; assay: kcat; higher = faster cleavage; RNA array
Outline: (§1)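 kobs was derived by fitting per-tile medians to one- or two-exponential decays after normalising signals to baseline and to non-cleaving reference variants. Those signals came from barcoded ribozyme variants transcribed in situ by E. coli RNA polymerase on sequenced MiSeq chips, followed through a hybridised Cy3 probe at 37 °C and imaged over ~14 h. Glucosamine-6-phosphate (40 μM to 10 mM) in HEPES/KCl/Mg(OAc)2 buffer was flowed in. Weighted Michaelis–Menten fits across concentrations then gave kcat and KM.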

glucosamine-6-phosphate [2] = variants of: B1; assay: KM; higher = weaker cofactor use; RNA array
Outline: as §1

glucosamine-6-phosphate [3] = variants of: B1; assay: self-cleavage kobs at 640 uM GlcN6P; higher = faster cleavage; RNA array
Outline: as §1

glucosamine-6-phosphate [4] = variants of: B1; assay: self-cleavage kobs at 2500 uM GlcN6P; higher = faster cleavage; RNA array
Outline: as §1

glucosamine-6-phosphate [5] = variants of: B1; assay: self-cleavage kobs at 10000 uM GlcN6P; higher = faster cleavage; RNA array
Outline: as §1

glucosamine-6-phosphate [6] = variants of: B1; assay: self-cleavage kobs at 40 uM GlcN6P; higher = faster cleavage; RNA array
Outline: as §1

glucosamine-6-phosphate [7] = variants of: B1; assay: self-cleavage kobs at 160 uM GlcN6P; higher = faster cleavage; RNA array
Outline: as §1

Variant | kcat (glucosamine-6-phosphate [1]) [s⁻¹] | KM (glucosamine-6-phosphate [2]) [µM] | self-cleavage kobs at 640 uM GlcN6P (glucosamine-6-phosphate [3]) [s⁻¹] | self-cleavage kobs at 2500 uM GlcN6P (glucosamine-6-phosphate [4]) [s⁻¹] | self-cleavage kobs at 10000 uM GlcN6P (glucosamine-6-phosphate [5]) [s⁻¹] | self-cleavage kobs at 40 uM GlcN6P (glucosamine-6-phosphate [6]) [s⁻¹] | self-cleavage kobs at 160 uM GlcN6P (glucosamine-6-phosphate [7]) [s⁻¹]
AUAAACGCGCCAGAAGUACAGAAAUGUAGUCGAGGAGGAGGAGGUUUAUCGAAUUUUCGGCGGAUGCAUCCAAA | 1.74e-05 ± 6.6e-06 |  |  |  |  |  | 
AUAAACGCGCCAGAGCUACAGAAAUGUAGUUGACGAGGAGGAGGUUUAUCGAAUUUUCGGCGGAUGCCUCCAAA | 0.00015 ± 3.4e-06 | 2500 ± 150 | 3.25e-05 ± 1.4e-05 | 7.37e-05 ± 1.3e-05 | 0.000121 ± 1.6e-05 |  | 
AUAAAGGCGCCAGAUCUACAGAAAUGUAGUUGACGAGGAGGAGGUUUAUCGAAUUUUCGGCGGAUGCCUCCAAA | 7.69e-05 ± 9.2e-06 |  | 2.52e-05 ± 1e-05 | 7.01e-05 ± 1.2e-05 | 6.82e-05 ± 6.2e-06 | < 1e-05 | 
AUAAACGCGCCAGAAGUACAGAAAUGUAGUUGACGAGGAGGAGGUUUAUCGAAUUUUCGGCGGAUGCCUCCAAA | 1.5e-05 ± 3.9e-07 | 9790 ± 480 | < 1e-05 |  |  | < 1e-05 | < 1e-05
AUAAAGGCGCCUGAACUACAGAAAUGUAGUUGACGAGGAGGAGGUUUAUCGAAUUUUCGGCGGAUGCCUCCAAA | 0.000134 ± 1.7e-05 |  | 7.58e-05 ± 1.1e-05 | 0.000155 ± 2.1e-05 | 0.000119 ± 1e-05 |  | 
AUAAACGCGCCAGAACUACAGAAAUGUAGUUGACGAGGAGGAGGUUUAUGGAAUUUUCGGCGGAUGCCUCCAAA | 2.11e-05 ± 7.4e-06 |  |  |  |  |  | 
AUAAAGGCGCCAGCACUACAGAAAUGUAGUUGACGAGGAGGAGGUUUAUCGAAUUUUCGGCGGAUGCCUCCAAA | 0.000105 ± 2.8e-06 | 2620 ± 210 |  | 5.24e-05 ± 8.1e-06 | 8.29e-05 ± 7.7e-06 |  | 
AUAAAGGCGCCAGUACUACAGAAAUGUAGUUGACGAGGAGGAGGUUUAUCGAAUUUUCGGCGGAUGCCUCCAAA | 0.000128 ± 4.9e-06 | 1370 ± 180 | 3.84e-05 ± 1e-05 | 8.77e-05 ± 1.3e-05 | 0.000111 ± 1.1e-05 |  | 
AUAAACGCGCCAGAACUACAGAAAUGUAGUUGACGAGGAGGAGGUUUAUCGACUUUUCGGCGGAUGCCUCCAAA | 2.09e-05 ± 4.9e-07 | 1550 ± 150 | < 1e-05 |  |  |  | < 1e-05
AUAAACGCGCCAGAACUACAGAAAUGUACUUGACGAGGAGGAGGUUUAUCGAAUUUUCGGCGGAUGCCUCCAAA | < 1e-05 |  |  |  |  |  | < 1e-05
AUAAACGCGCCAGCACUACAGAAAUGUAGUUGACGAGGAGGAGGUUUAUCGAAUUUUCGGCGGAUGCCUCCAAA | 1.13e-05 ± 5.2e-07 | 5840 ± 600 |  |  |  |  | 
AUAAACGCGCCAGUACUACAGAAAUGUAGUUGACGAGGAGGAGGUUUAUCGAAUUUUCGGCGGAUGCCUCCAAA | 1.09e-05 ± 1.1e-06 |  |  |  |  |  | 
AUAAAGGCGCCAGAACUACAGAAAUGUAGUUGACGAGGAGGAGGUUUAUCGAGUUUUCGGCGGAUGCCUCCAAA | 0.000509 ± 6.7e-05 | 2390 ± 600 | 9.71e-05 ± 1.5e-05 | 0.000306 ± 4.1e-05 | 0.000395 ± 4.4e-05 |  | 3.62e-05 ± 1.3e-05
AUAAACGCGCCAGAACUACAGAAAUGUAGUUGACGAGGAGGAGGUUUAUCGAAUCUUCGGCGGAUGCCUCCAAA | 0.000127 ± 4e-05 |  |  | 3.24e-05 ± 1.2e-05 | 7.95e-05 ± 1.6e-05 |  | 
AUAAACGCGCCAGAACUACAGAAAUGUAGUUGACGAGGAGGAGGUUUAUCGAAAUUUCGGCGGAUGCCUCCAAA | 0.000158 ± 2.8e-05 | 6600 ± 2300 |  | 4.87e-05 ± 1.5e-05 | 9.38e-05 ± 1.7e-05 |  | 
AUAAACGCGCCAGAACUACAGAAAUGUAGUUGACGAGGAGGAGGUUUAUCGAAUUUUCGGCGGAUGCCUCCAAA | 0.000141 ± 4.6e-06 | 2100 ± 180 | 3.13e-05 ± 1.1e-06 | 7.95e-05 ± 1.5e-06 | 0.000115 ± 1.8e-06 |  | < 1e-05
AUAAAGGCGCCAGAACUACAGAAAUGUAGUUGACGAGGAGGAGGUUUAUCGAAUUUUCGGCGGAUGCCUCCAAA | 0.00068 ± 9.8e-05 | 2660 ± 490 | 0.00013 ± 2.3e-06 | 0.000467 ± 4.5e-05 | 0.000533 ± 2.4e-05 | < 1e-05 | 4.17e-05 ± 1.6e-06
AUAAACGCGCCUGAACUACAGAAAUGUAGUUGACGAGGAGGAGGUUUAUCGAAUUUUCGGCGGAUGCCUCCAAA | 0.000292 ± 1.8e-05 | 2560 ± 310 | 5.62e-05 ± 7.4e-06 | 0.000157 ± 1.8e-05 | 0.000227 ± 2.1e-05 |  | 
AUAAAGGCGCCAGAACUACAGAAAUGUAGUUGACGAGGCGGAGGUUUAUCGAAUUUUCGGCGGAUGCCUCCAAA | 0.00012 ± 4e-06 | 1580 ± 180 | 3.27e-05 ± 8.5e-06 | 7.92e-05 ± 1.4e-05 | 0.000103 ± 8.7e-06 |  | 
AUAAAGGCGCCAGAACUACAGAAAUGUAGUUGGCGAGGAGGAGGUUUAUCGAAUUUUCGGCGGAUGCCUCCAAA | < 1e-05 |  |  |  | < 1e-05 |  | 

— the supplement of paper PMC7125110
